In publication PMC8431788, “Characterization of Protocatechuate 4,5-Dioxygenase from Pseudarthrobacter phenanthrenivorans Sphe3 and In Situ Reaction Monitoring in the NMR Tube” (International Journal of Molecular Sciences, 2021) one finds Km data, which are given here for 1 protein.

Substrate in the data set: O=C(O)c1ccc(O)c(O)c1
Kind of data set: spectrophotometric CHMS formation, nonlinear Michaelis-Menten fit. The class given is biochemical, Pseudarthrobacter phenanthrenivorans. The conditions noted are these: 100 mM glycine-NaOH pH 9.5, 20 °C, co-substrate O2, Fe(II)/L-ascorbate preincubation likely, not stated for the Km.

B1: PcaA (PCA 4,5-dioxygenase) (Pseudarthrobacter phenanthrenivorans Sphe3) (protein)
chain: MTLDKPYNDVPGTTIFDADQARKGYNLNQFCMSLMKPENRERYLADRGAYLDEWPLNPVQRQAVLDIDLNTCIAEGGNIYFLAKIGATHGLSFQQMAGSMTGMSEAAYRDMMIGGGRRPEGNRLKDLDGWTPPEPGEKAETVRQDAPAQYTSALFTSHVPAIGAAMDLGKTEEPYWKKVFSGYEWTREWAKENLPDVVILVYNDHATAFDSSIIPTFVLGTGAEYPVADEGYGPRPVPDVKGYPELAAHIAQSVIQDDFDLTLVNEMVVDHGLTVPLSLVYGDVEEWPVRVIPLAVNVVQYPVPSGRRCYELGRALRRALDKWDGEPLNVQIWGTGGMSHQLQGPRAGLINEEWDNAFLDHLIADPVGLTEWQHMEYVDEAGSEGIELVDWLIARGAMDDQFGGESPEVNHRFYHVPASNTAVGHLVLTNQTD
notes: full-length single-subunit alpha-beta fusion from plasmid pASPHE302; 1302 bp amplicon NdeI/XhoI in pET29c(+), His-column purified from E. coli BL21(DE3); ~45 kDa on SDS-PAGE, predicted 48 kDa
As a reminder, the Km is the concentration of substrate that gives half-maximal velocity. As to B1, the Michaelis constant (Km) is 21 ± 1.6 µM.
